The results in this text go back to PMC2760748.

One data set relates to GST-p53. The data set can be described thus: DNA-protein ELISA. Conditions: EMSA: 100 ng p53 (or 5 ug KB nuclear extract), 3 ng probe, 30 min at RT, 4% native PAGE with 0.5x TBE, buffer per ref [25]; ELISA: p53 in PBS on PAb421, 0.5 ug …. In general terms: In EMSA bound probe runs differently from free probe, usually more slowly.
For the next data set, the system named is His-p53. In words: DNA-protein ELISA. Particulars: EMSA: 100 ng p53 (or 5 ug KB nuclear extract), 3 ng probe, 30 min at RT, 4% native PAGE with 0.5x TBE, buffer per ref [25]; ELISA: p53 in PBS on PAb421, 0.5 ug ….

biotin-p21-5'-DBS: the binding signal (% protection of DBS binding) in the data set with GST-p53 and in the data set on His-p53 was 60 throughout.
